Laboratory results from patent US20030171565A1 (VANDERBILT UNIVERSITY, published 2003).

Biological target: T1, tyrosine phosphatase SHP-1 (human, UniProt P29350 1-595)
T1 construct: mature
Experiment: anti-PZR immunoprecipitation from pervanadate-treated cells, Western blot

T1 sequence (P29350 whole entry): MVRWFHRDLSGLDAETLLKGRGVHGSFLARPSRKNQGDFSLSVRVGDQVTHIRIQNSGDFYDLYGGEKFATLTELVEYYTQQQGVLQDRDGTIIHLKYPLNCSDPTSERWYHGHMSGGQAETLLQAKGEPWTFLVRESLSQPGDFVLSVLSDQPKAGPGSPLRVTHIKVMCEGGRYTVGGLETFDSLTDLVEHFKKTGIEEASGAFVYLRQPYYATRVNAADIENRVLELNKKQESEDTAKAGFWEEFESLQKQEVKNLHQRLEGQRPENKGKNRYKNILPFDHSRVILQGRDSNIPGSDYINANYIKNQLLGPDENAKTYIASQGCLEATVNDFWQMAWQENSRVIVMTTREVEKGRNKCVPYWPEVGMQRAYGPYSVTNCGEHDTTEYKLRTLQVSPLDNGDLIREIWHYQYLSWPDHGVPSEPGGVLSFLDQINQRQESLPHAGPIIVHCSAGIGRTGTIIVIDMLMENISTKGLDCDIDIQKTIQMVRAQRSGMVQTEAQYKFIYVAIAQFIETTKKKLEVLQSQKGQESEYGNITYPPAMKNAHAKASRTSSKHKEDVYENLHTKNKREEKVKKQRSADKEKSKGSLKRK

B1: protein zero related (PZR), tyrosine-phosphorylated (receptor)
chain: SALEVYTPKEIFVANGTQGKLTCKFKSTSTTGGLTSVSWSFQPEGADTTVSFFHYSQGQVYLGNYPPFKDRISWAGDLDKKDASINIENMQFIHNGTYICDVKNPPDIVVQPGHIRLYVVEKENLPVFPVWVVVGIVTAVVLGLTLLISMILAVLYRRKNSKRDYTGCSTSESLSPVKQAPRKSPSDTEGLVKSLPSGSHQGPVIYAQLDHSGGHHSDKINKSESVVYADIRKN
modifications: phosphotyrosine at 241 and 263 (cells treated with pervanadate, or cells expressing catalytically inactive SHP-2); N-glycosylated
notes: It was assayed in Triton X-100 cell extracts or as protein purified from 293 cells; also called hPZR; p43
  binding result: no binding
